We go through four molecules from patent US20170022281A1 (AbbVie / Abbott, published 2017).

In test [1] the target is T1, human PRLR (Biacore antigen) (human, UniProt P16471 25-234, limits assumed).
T1 construct: The construct injected over captured antibody is not described (a soluble form is likely); also called huPRLR
T1 sequence: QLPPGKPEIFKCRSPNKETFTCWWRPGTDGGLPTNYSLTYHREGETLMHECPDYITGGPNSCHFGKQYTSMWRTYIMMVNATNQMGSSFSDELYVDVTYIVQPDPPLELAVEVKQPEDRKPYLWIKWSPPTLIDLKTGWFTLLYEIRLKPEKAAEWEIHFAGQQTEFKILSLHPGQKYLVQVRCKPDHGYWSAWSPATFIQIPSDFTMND
Description: SPR Biacore. The method in brief:
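Association rate, dissociation rate and dissociation constant were measured by surface plasmon resonance on a Biacore instrument. PRLR antigen was tested at 600 nM, 66.67 nM and 7.41 nM, a 3-point, 9-fold dilution series. Constants came from a 1:1 binding model fit (local Rmax, mass-transport term included) in Biacore T200 Evaluation Software.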
On the technique in general: SPR reads the build-up and loss of mass on a sensor chip optically.

The target of the next test is T2, human PRLR on cells (human, UniProt P16471 25-622).
T2 sequence: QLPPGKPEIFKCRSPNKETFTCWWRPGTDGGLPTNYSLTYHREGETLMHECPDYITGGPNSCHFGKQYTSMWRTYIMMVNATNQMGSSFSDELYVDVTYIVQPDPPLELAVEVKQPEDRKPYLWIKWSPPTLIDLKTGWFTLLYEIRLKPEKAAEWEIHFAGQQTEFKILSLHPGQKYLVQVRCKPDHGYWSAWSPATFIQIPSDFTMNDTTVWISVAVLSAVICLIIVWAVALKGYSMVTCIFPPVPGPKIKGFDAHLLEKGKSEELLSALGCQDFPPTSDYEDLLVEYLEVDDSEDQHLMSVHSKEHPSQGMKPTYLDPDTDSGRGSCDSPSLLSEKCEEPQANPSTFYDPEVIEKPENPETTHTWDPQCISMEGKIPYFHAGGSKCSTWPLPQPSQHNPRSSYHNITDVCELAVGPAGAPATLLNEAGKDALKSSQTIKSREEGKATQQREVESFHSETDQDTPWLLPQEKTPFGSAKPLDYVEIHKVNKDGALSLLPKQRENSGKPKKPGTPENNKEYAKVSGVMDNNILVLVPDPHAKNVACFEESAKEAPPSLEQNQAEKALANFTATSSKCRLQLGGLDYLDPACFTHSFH
Description: cell-based or functional assay.

In test [2] the target is T3, mouse PRLR on Baf3-mPRLR cells (mouse, UniProt Q08501 20-608).
T3 sequence (looked up): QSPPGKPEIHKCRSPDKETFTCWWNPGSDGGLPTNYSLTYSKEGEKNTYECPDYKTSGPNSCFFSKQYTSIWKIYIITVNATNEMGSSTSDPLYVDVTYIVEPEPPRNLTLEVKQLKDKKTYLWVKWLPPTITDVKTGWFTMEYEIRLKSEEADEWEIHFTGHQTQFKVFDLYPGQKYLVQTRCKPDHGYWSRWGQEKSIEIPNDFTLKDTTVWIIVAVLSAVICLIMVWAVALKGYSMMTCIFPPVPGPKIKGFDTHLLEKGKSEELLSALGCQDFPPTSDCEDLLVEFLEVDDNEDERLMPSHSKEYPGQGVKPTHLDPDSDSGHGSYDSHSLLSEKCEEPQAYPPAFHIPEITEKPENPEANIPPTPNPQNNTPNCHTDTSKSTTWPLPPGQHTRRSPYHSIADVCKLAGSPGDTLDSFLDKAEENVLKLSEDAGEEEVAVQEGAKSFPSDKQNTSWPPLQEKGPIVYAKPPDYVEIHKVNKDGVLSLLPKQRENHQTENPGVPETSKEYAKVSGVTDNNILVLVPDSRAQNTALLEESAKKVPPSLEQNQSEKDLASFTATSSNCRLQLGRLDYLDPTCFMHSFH
Description: cell-based or functional assay.

B1: Ab13 (antibody, V domains shown)
VH: QVQLQQPGAELVRPGTSVKLSCKASGYTFTSFWMHWVKQRPGQGLEWIGVIDPSDSHTNYNQKFKGKATLTVNTSSSTAYMHLSSLTSEDSAVYYCARGDYSNWFTYWGQGTLVTVSA
VL: DVVMTQTPFSLPVSLGDQASISCRSSQSLVHSNGNTYLHWYLQKPGQSPKLLIYKVSNRFSGVPDRFSGSGSGTDFTLKISRVEAEDLELYFCSQSTHVPWTFGGGTKLEIK
notes: murine monoclonal, isotype G2a; also called murine Ab13
For orientation: Kd means the concentration at which binding is half-saturated. High values mean a looser complex, low ones a tighter complex. A word on the koff: it is the first-order rate constant of dissociation. Lower therefore signals a long-lived complex. The term kon denotes the second-order rate constant of association. Regarding B1, in test [1], the Kd worked out at 0.997 nM, the koff was determined as 0.000431 s⁻¹ and the association rate constant (kon) was 433000 M⁻¹ s⁻¹. Further, in the test with human PRLR on cells, the “Baf3-hPRLR proliferation IC50” value came out at 0.32 µg/mL and the “T47D pPRLR ELISA IC50” value stood at 0.047 µg/mL. Besides, the “Baf3-mPRLR proliferation IC50” value in test [2] was 4.69 µg/mL.

B2: Ab11 (antibody, V domains shown)
VH: EVKLVESGGGLVQPGGSLKLSCAASGFTFSDYYMFWVRQTPEKSLEWVAYISNGGGSTYYPDTVKGRFTISRDNAKNTLYLQMSRLKSEDTAMYYCSRQLFYYGSRGAMGYWGQGTSVTVSS
VL: DVLMTQTPLSLPVSLGDQASISCRSSQSIVHSNGNTYLEWYLQKPGQSPKLLIYKVSNRFSGVPDRFSGSGSGTDFTLKISRVEAEDLGVYYCFQGSHVPFTFGSGTKLEIK
notes: murine monoclonal, isotype G1; also called murine Ab11
In test [1], B2 gave a Kd of 69.2 nM, a koff of 0.0211 s⁻¹ and a kon of 305000 M⁻¹ s⁻¹. Besides, in the test with human PRLR on cells, the “Baf3-hPRLR proliferation IC50” value amounted to 1.11 µg/mL and the “T47D pPRLR ELISA IC50” value is 0.047 µg/mL. For the same molecule, the “Baf3-mPRLR proliferation IC50” value in test [2] turned out to be 18.5 µg/mL.

B3: Ab12 (antibody, V domains shown)
VH: DVQLQESGPGLVKPSQSLSLTCTVTGYSITSDYAWNWIRQFPGNKLEWMGYIGYSGRTSFNPSLKSRISITRDTSKNQFFLQLNSVTTEDTATYYCARGGFAMDYWGQGTSVTVSS
VL: QIVLTQSPGIMSASPGEKVTMTCSASSSVTYMYWYQQKPRSSPKPWIYLTSNLASGVPARFSGSGSGTSYSLTISSMEAEDGATYYCQQWSSTPPLTFGGGTKLELN
notes: murine monoclonal, isotype G2a; reported as PRLR agonist; also called murine Ab12
In test [1], B3 returned a Kd of 6.6 nM, a koff of 0.00186 s⁻¹ and a kon of 282000 M⁻¹ s⁻¹. Moreover, the “T47D pPRLR ELISA IC50” value with human PRLR on cells stood at 0.538 µg/mL. Besides, in test [2], the “Baf3-mPRLR proliferation IC50” value was more than 30 µg/mL.

B4: Ab10 (antibody, V domains shown)
VH: EVQLHQSGPELVKPGASVKISCKASGYTFTDYNMHWMKQSHGKSLEWIGYFYPYNGGTGYNQEFKNKATLTVDISSSTAYMELRRLTSEDSAVYYCARGGWGIYYAMDYWGQGTSVTVSS
VL: DIQMTQSPASLSASVGETVTITCRASENIYSYLTWYQQKQGKSPQLLVYNAKTLAEGVPSRFSGSGSGTQFSLKINSLQPEDFGSYHCQHHSVTPLTFGAGTKLELK
notes: murine monoclonal, isotype G2a; also called murine Ab10
B4: in test [1], the Kd was determined as 1.41 nM, the koff came to 0.000228 s⁻¹ and the kon is 161000 M⁻¹ s⁻¹. For the same molecule, in the test with human PRLR on cells, the “Baf3-hPRLR proliferation IC50” value was 3.14 µg/mL and the “T47D pPRLR ELISA IC50” value was 0.362 µg/mL. Moreover, the “Baf3-mPRLR proliferation IC50” value in test [2] is more than 30 µg/mL.
